Experimental data from patent US20240368285A1 (HEFEI TG IMMUNOPHARMA, published 2024).

Experiments:
[1] = biological target: T1, MICA on human tumor cells (A-375, A549, HCT-15, MDA-MB-231) (human, UniProt Q29983 24-383); test: flow cytometry on A-375 cells, Alexa-647 goat anti-human secondary, % binding ratio
T1 construct: whole, on cells
T1 sequence (looked up): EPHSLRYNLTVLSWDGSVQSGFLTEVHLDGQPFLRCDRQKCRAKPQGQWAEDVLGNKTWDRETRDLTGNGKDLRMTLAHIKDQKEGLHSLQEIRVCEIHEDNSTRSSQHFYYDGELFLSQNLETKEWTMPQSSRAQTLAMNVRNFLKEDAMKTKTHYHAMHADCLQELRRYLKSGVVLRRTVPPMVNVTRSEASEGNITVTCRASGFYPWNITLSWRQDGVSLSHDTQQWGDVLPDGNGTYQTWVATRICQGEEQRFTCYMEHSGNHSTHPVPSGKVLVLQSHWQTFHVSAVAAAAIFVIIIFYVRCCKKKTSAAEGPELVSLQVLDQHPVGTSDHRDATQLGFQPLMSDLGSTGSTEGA
Description: (§1) (2) Tumor cells were diluted to a density of 2×10⁶/mL with PBS and added into a 1.5 ml EP tube in a volume of 100 l/tube. 10 l/tube of goat serum was added into the EP tube; and blocking was conducted at 4° C. for 30 min. […] The tube was incubated at 4° C. for 30 min. 1 mL of PBS was added into the EP tube, and centrifugation was conducted 4° C. at a rate of 3,500 rpm for 5 min. The supernatant was removed. Then, the EP tube was washed once with the PBS, and the supernatant was removed after centrifugation. The cells were resuspended with PBS in a volume of 100 l/tube. An Alexa-647 labeled goat anti-human secondary antibody (purchased from Jackson lab) was added into the tube in a volume of 1 l/tube, and the tube was incubated in the dark at 4° C. for 30 min. The tube was washed twice with PBS, and the supernatant was removed after centrifugation. The cells were resuspended with the PBS in a volume of 200 l/tube, and detection was conducted by a flow cytometer. The results are as shown in FIG. 17A and FIG. 17B, FIG. 18A and FIG. 18B, FIG. 19A and FIG. 19B, and FIG. 20A and FIG. 20B.

[2] = biological target: T1, MICA on human tumor cells (A-375, A549, …); test: flow cytometry on HCT-15 cells, Alexa-647 goat anti-human secondary, % binding ratio
Description: as §1

[3] = biological target: T2, MICA protein (SPR analyte) (human, UniProt Q29983 24-308, limits assumed); test: SPR, Biacore 8K
T2 construct: also called major histocompatibility complex class I chain related polypeptide A
T2 sequence: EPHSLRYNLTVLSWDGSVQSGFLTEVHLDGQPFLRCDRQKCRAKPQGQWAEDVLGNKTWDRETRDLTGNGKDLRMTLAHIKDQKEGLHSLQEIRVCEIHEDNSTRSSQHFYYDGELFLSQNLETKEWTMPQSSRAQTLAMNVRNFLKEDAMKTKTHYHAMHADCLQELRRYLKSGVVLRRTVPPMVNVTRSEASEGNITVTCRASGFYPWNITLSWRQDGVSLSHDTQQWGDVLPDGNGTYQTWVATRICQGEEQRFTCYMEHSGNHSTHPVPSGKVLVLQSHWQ
Description: In a Biacore 8K (Cytiva) system, the antibody was diluted to a concentration of 10 µg/mL with running buffer (HBS-EP), and the antibody was conjugated onto a protein A (Cytiva, 29127556) chip at a flow rate of […].
Kinetic and affinity data of binding of the maternal antibody h5A1 and the affinity maturation antibody h5A1002 and MICA were detected.

MICA008α3-Fc = biological target: T3, MICA008α3-Fc (human); test: ELISA on coated MICA*008 α3-Fc (1 µg/ml), HRP anti-human Fab secondary, OD450
T3 construct: also called MICA*008-Fc; domain α3 of MICA-008 Fc fusion protein
T3 sequence (chain, as listed by the source limits assumed): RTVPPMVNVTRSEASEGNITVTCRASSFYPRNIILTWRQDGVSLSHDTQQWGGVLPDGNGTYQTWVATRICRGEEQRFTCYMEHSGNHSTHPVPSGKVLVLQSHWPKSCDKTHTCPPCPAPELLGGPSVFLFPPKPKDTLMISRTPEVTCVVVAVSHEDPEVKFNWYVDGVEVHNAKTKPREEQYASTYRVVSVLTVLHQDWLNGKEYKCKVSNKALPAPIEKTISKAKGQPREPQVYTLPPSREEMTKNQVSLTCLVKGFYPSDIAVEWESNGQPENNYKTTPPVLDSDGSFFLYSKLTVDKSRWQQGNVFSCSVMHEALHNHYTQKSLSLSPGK
Description: After the antibodies were added, signal intensity was used for judging the binding characteristics of the antibodies and MICA and MICB.
The fusion proteins (produced in the Applicant's laboratory; an amino acid sequence of MICA002α3-Fc is as set forth in SEQ ID NO: 22; an amino acid sequence of MICA005α3-Fc is as set forth in SEQ ID NO: 24; an amino acid sequence of MICA008α3-Fc is as set forth in SEQ ID NO: 25; an amino acid sequence of MICA004α3-Fc is as set forth in SEQ ID NO: 23; an amino acid sequence of MICB001α3-Fc is as set forth in SEQ ID NO: 26; and an amino acid sequence of MICB005α3-Fc is as set forth in SEQ ID NO: 27) were diluted to a concentration of 1 μg/ml with PBS and then added into a 96-well plate in a volume of 100 μl/well. The plate was placed at 4° C. overnight. The PBS in the 96-well plate was removed by sucking. After the plate was washed with PBST (that is, PBS having a pH value of 7.2 included 0.1 volume % of Tween 20) for 6 times, PBS containing 10% of BSA was added in a volume of 200 μl/well. The plate was incubated at 37° C. for 2 hours for blocking. The blocking solution was removed. […]

- EC50 (read off the curve) [1]: ~0.3 µg/mL
- EC50 (read off the curve) [2]: ~0.1 µg/mL
- fold increase of affinity against maternal antibody h5A1 [3]: ~39 times
- EC50 (read off the curve) (MICA008α3-Fc): ~0.08 µg/mL
B1: affinity maturation antibody h5A1002 (antibody, V domains shown)
VH: QVQLQESGPGLVKPSETLSLTCTVSGFSLTTYGGHWIRQPPGKGLEWIGMIWTDGWTDYNAAFISRVTISVDTSKNQFSLKLSSVTAADTAVYYCARKGHGYYYAMDYWGQGTLVTVSS
VL: EIVLTQSPGTLSLSPGERATLSCTASSSVSSSYLHWYQQKPGQAPRLLIYSTSNLISGIPDRFSGSGSGTDFTLTISRLEPEDFAVYYCHQYHRSPFTFGQGTKLEIKR
notes: Human IgG1, kappa; also called h5A1002-hIgG1
